How the values were obtained:
[1] = nude mouse
Source text: The nude mouse model was used to evaluate the maximum tolerated dose of each group. When the body weight of a nude mouse decreased by 20%, the death/survival was monitored and counted.

Mouse hepatoma H22 cells = assay: Anti-tumor effect in transplanted tumor model; format: in vivo, mice; settings: H22 subcutaneous tumor; tumors weighed two weeks after transplantation
Protocol: An animal model of transplanted tumor was used. Mouse hepatoma H22 cells were transplanted subcutaneously into the right axillary region of mice to form solid tumors. After transplantation for 2 days and 7 days, drugs were administered intravenously via the tail vein as a single dose. Two weeks after transplantation, the mice were sacrificed by cervical dislocation, and the tumors were isolated and weighed.

[2] = Pharmacokinetics in tumor-free SD rats (HPLC, non-compartmental model); format: in vivo, Adult SD rats; settings: single dose of 25 mg/kg, within 7 days
Protocol: Tumor-free Adult SD rats were administrated a single dose of 25 mg/kg, and four rats were used for each experimental point. The rats were sacrificed at different time points within 7 days, and the concentrations of pegylated irinotecan and its metabolite SN38 were measured and analyzed by HPLC. The analysis of pharmacokinetics was carried out by using a non-compartmental model.

CCOC(=O)CC(CN)(CC(=O)OCC)CC(=O)OCC [Example T8, 8arm-PEG-Gly-IRES]
maximum tolerated dose, ranking between groups [1]: the lowest
tumor-inhibition ratio, ranking between groups (Mouse hepatoma H22 cells): the highest tumor-inhibition ratio
apparent elimination half-life of the metabolite SN38, ranking between groups [2]: the longest apparent elimination half-life
